We go through 13 compounds from patent US9617309B2, “Proline-locked stapled peptides and uses thereof” (President and Fellows of Harvard College, priority 2012, dated 2017).

Numbered stars: 1 amine (or outer) side, 2 acyl side, 3 side chain; on linkers, the order of the positions; unused ones are H or OH. Bridge positions count the residues as written; N and C are the ends. Square brackets hold non-standard residues; d marks the D form. Ends that are not written are not given here. Peptide text beside a SMILES is read from it. * marks the point of attachment. PR3 = (R)-N-(acetyl)-2-(2'-propenyl)proline, C=CC[C@@]1(C(=O)*)CCCN1C(C)=O; S3 = α-methyl,α-allylglycine, C=CC[C@](C)(N[*:1])C(=O)[*:2]; X1 = O=C([C@]1(CCCC=[*:3])CCCN1[*:1])[*:2]; X2 = O=C([C@]1(CC=[*:3])CCCN1[*:1])[*:2]; X3 = C[C@@](CC=[*:3])(N[*:1])C(=O)[*:2]; S8 = C=CCCCCCC[C@](C)(N)C(=O)O; R5 = C=CCCC[C@@](C)(N)C(=O)O; S5 = C=CCCC[C@](C)(N)C(=O)O

The first data set can be described thus: CD measurements of peptide conformation and % helicity. To be noted: 20° C. Format: physicochemical. The text has this:
The conformation of peptide 1 and 2 was investigated by CD measurements (FIG. 4).
(Peptide 1 of FIG. 2 corresponds to Peptide “1)” of FIG. 17, while Peptide 2 of FIG. 2 corresponds to Peptide “4)” of FIG. 17).
Take “peptide 2: Pro-locked peptide with partial basic region of GCN4, crosslink between PR3 and S3; Peptide "4)" of FIG. 17 (SEQ ID NO:2) ([PR3]AA[S3]KRARNTEAAW; staple 1-4; also: olefin Z-isomer)”: the “% helicity” value turned out to be 67% and the “conformation by CD” value is listed as “(X-helix”.

A short description of a further data set: Variable temperature CD measurement of α-helix stability. To be noted: 20° C. to 90° C.; 50 mM sodium phosphate buffer (pH 8.0), alone and with 100 mM NaCl, 1 M NaCl, and 10% TFE. The class given is physicochemical. The text has this: These observations indicate that the proline stapled peptides adopt an α-helix conformation with extraordinary stability.
“peptide 2: Pro-locked peptide with partial basic region of GCN4, crosslink between PR3 and S3; Peptide "4)" of FIG. 17 (SEQ ID NO:2) ([PR3]AA[S3]KRARNTEAAW; staple 1-4; also: olefin Z-isomer)”: the “α-helix conformation on heating” value was “completely maintained”.

A further data set can be described thus: circular dichroism. To be noted: 50 mM sodium phosphate (stated for FIG. 5; assumed for the rest); pH 8.0; 20 °C. On the technique in general: Circular dichroism is the unequal absorption of left and right circularly polarised light.
For `CC(=O)N1CCC[C@]12C/C=C\CCC[C@@](C)(C(=O)N[C@@H](CCCCN)C(=O)N[C@@H](CCCNC(=N)N)C(=O)N[C@@H](C)C(=O)N[C@@H](CCCNC(=N)N)C(=O)N[C@@H](CC(N)=O)C(=O)N[C@H](C(=O)N[C@@H](CCC(=O)O)C(=O)N[C@@H](C)C(=O)N[C@@H](C)C(=O)N[C@@H](Cc1c[nH]c3ccccc13)C(N)=O)[C@@H](C)O)NC(=O)[C@H](C)NC(=O)[C@H](C)NC2=O` (Ac-[X2]AA[S5]KRARNTEAAW-NH2; staple (Z) 1-4), the helicity was 44%.

Turning to `CC(=O)N1CCC[C@]12C/C=C\C[C@@](C)(C(=O)N[C@@H](CCCCN)C(=O)N[C@@H](CCCNC(=N)N)C(=O)N[C@@H](C)C(=O)N[C@@H](CCCNC(=N)N)C(=O)N[C@@H](CC(N)=O)C(=O)N[C@H](C(=O)N[C@@H](CCC(=O)O)C(=O)N[C@@H](C)C(=O)N[C@@H](C)C(=O)N[C@@H](Cc1c[nH]c3ccccc13)C(N)=O)[C@@H](C)O)NC(=O)[C@H](C)NC(=O)[C@H](C)NC2=O` (Ac-[X2]AA[X3]KRARNTEAAW-NH2; staple (Z) 1-4), the helicity came to 66%.

The same data set, now with this note: 50 mM sodium phosphate (stated for FIG. 5; assumed for the rest); pH 8.0; ns °C.
`CC(=O)N1CCC[C@]12CC=CCCCC1(CCCC=CCCCCCC[C@@](C)(C(=O)N[C@@H](C)C(=O)N[C@@H](C)C(=O)N[C@@H](Cc3c[nH]c4ccccc34)C(N)=O)NC(=O)[C@H]([C@@H](C)O)NC(=O)[C@H](CC(N)=O)NC(=O)[C@H](CCCNC(=N)N)NC(=O)[C@H](C)NC(=O)[C@H](CCCNC(=N)N)NC(=O)[C@H](CCCCN)NC1=O)NC(=O)[C@H](C)NC(=O)[C@H](C)NC2=O` (stereo partly drawn) yielded a helicity of 81%.

The compound `CC(=O)N1CCC[C@]12CC=CCCCC1(CCCC=CCCC[C@](C)(C(=O)N[C@@H](CC(N)=O)C(=O)N[C@H](C(=O)N[C@@H](CCC(=O)O)C(=O)N[C@@H](C)C(=O)N[C@@H](C)C(=O)N[C@@H](Cc3c[nH]c4ccccc34)C(N)=O)[C@@H](C)O)NC(=O)[C@H](C)NC(=O)[C@H](CCCNC(=N)N)NC(=O)[C@H](CCCCN)NC1=O)NC(=O)[C@H](C)NC(=O)[C@H](C)NC2=O` (stereo partly drawn) showed a helicity of 47%.

For the compound `CC(=O)N1CCC[C@]12CC=CC[C@@](C)(C(=O)N[C@@H](CCCCN)C(=O)N[C@@H](CCCNC(=N)N)C(=O)N[C@@H](C)C(=O)N[C@@H](CCCNC(=N)N)C(=O)N[C@@H](CC(N)=O)C(=O)N[C@H](C(=O)N[C@@H](CCC(=O)O)C(=O)N[C@]1(C)CC=CCCNC(=O)[C@H](Cc3c[nH]c4ccccc34)NC(=O)[C@H](C)NC1=O)[C@@H](C)O)NC(=O)[C@H](C)NC(=O)[C@H](C)NC2=O`, the helicity worked out at 64%.

As to `CC(=O)N1CCC[C@]12CC=CC[C@@](C)(C(=O)N[C@@H](CCCCN)C(=O)N[C@@H](CCCNC(=N)N)C(=O)N[C@@H](C)C(=O)N[C@@H](CCCNC(=N)N)C(=O)N[C@@H](CC(N)=O)C(=O)N[C@H](C(=O)N[C@@H](CCC(=O)O)C(=O)N[C@]1(C)CC=CCNC(=O)[C@H](Cc3c[nH]c4ccccc34)NC(=O)[C@H](C)NC1=O)[C@@H](C)O)NC(=O)[C@H](C)NC(=O)[C@H](C)NC2=O`, the helicity was 64%.

`CC(=O)N1CCC[C@]12CC=CC[C@@](C)(C(=O)N[C@@H](CCCCN)C(=O)N[C@@H](CCCNC(=N)N)C(=O)N[C@@H](C)C(=O)N[C@@H](CCCNC(=N)N)C(=O)N[C@@H](CC(N)=O)C(=O)N[C@H](C(=O)N[C@@H](CCC(=O)O)C(=O)N[C@]1(C)CCC=CCCNC(=O)[C@H](Cc3c[nH]c4ccccc34)NC(=O)[C@H](C)NC1=O)[C@@H](C)O)NC(=O)[C@H](C)NC(=O)[C@H](C)NC2=O` gave a helicity of 80%.

As for `CC(=O)N1CCC[C@]12CC=CC[C@@](C)(C(=O)N[C@@H](CCCCN)C(=O)N[C@@H](CCCNC(=N)N)C(=O)N[C@@H](C)C(=O)N[C@@H](CCCNC(=N)N)C(=O)N[C@@H](CC(N)=O)C(=O)N[C@H](C(=O)N[C@@H](CCC(=O)O)C(=O)N[C@]1(C)CCC=CCNC(=O)[C@H](Cc3c[nH]c4ccccc34)NC(=O)[C@H](C)NC1=O)[C@@H](C)O)NC(=O)[C@H](C)NC(=O)[C@H](C)NC2=O`, the helicity was determined as 69%.

As to `CC(=O)N1CCC[C@]12CC=CC[C@@](C)(C(=O)N[C@@H](CCCCN)C(=O)N[C@@H](CCCNC(=N)N)C(=O)N[C@@H](C)C(=O)N[C@@H](CCCNC(=N)N)C(=O)N[C@@H](CC(N)=O)C(=O)N[C@H](C(=O)N[C@@H](CCC(=O)O)C(=O)N[C@]1(C)CCCC=CCNC(=O)[C@H](Cc3c[nH]c4ccccc34)NC(=O)[C@H](C)NC1=O)[C@@H](C)O)NC(=O)[C@H](C)NC(=O)[C@H](C)NC2=O`, the helicity turned out to be 73%.

Take `CC(=O)N[C@]1(C)CCCC=CCCCCCC[C@@](C)(C(=O)N[C@@H](CC(N)=O)C(=O)N[C@H](C(=O)N[C@@H](CCC(=O)O)C(=O)N[C@@H](C)C(=O)N[C@@H](C)C(=O)N[C@@H](Cc2c[nH]c3ccccc23)C(N)=O)[C@@H](C)O)NC(=O)[C@H](C)NC(=O)[C@H](CCCNC(=N)N)NC(=O)[C@H](CCCCN)NC(=O)[C@H](CC(C)C)NC(=O)[C@H](C)NC(=O)[C@H](C)NC1=O` (Ac-[R5]AALKRA[S8]NTEAAW-NH2; staple 1-8): the helicity was found to be 48%.

As for `CC(=O)N1CCC[C@]12CCCC=CCCCCCC[C@@](C)(C(=O)N[C@@H](CC(N)=O)C(=O)N[C@H](C(=O)N[C@@H](CCC(=O)O)C(=O)N[C@@H](C)C(=O)N[C@@H](C)C(=O)N[C@@H](Cc1c[nH]c3ccccc13)C(N)=O)[C@@H](C)O)NC(=O)[C@H](C)NC(=O)[C@H](CCCNC(=N)N)NC(=O)[C@H](CCCCN)NC(=O)[C@H](CC(C)C)NC(=O)[C@H](C)NC(=O)[C@H](C)NC2=O` (Ac-[X1]AALKRA[S8]NTEAAW-NH2; staple 1-8), the helicity came out at 61%.

`CC(=O)N1CCC[C@]12CC=CC[C@@](C)(C(=O)N[C@@H](C)C(=O)N[C@@H](C)C(=O)N[C@@H](C)C(=O)N[C@@H](Cc1c[nH]c3ccccc13)C(N)=O)NC(=O)[C@H](C)NC(=O)[C@H](C)NC2=O` (Ac-[X2]AA[X3]AAAW-NH2; staple 1-4) registered a helicity of 70%.
